Source: publication PMC7504102

Target: StrepHA-SGFP2 (control)
Assay: co-IP; co-IP/HiBiT assay: SGFP2-fused proteins immunoprecipitated with anti-GFP pAb from HEK293 or HEK293 ALG-2KO lysates (with or without co-expressed FLAG-ALG-2); HKM, 1% Nonidet P-40, 10 mM NEM, 10 μM CaCl2; co-precipitated HiBiTHA-SARAF read by lytic HiBiT assay with LgBiT, normalised by …

- relative interaction activity (WT expressed as 100%): < 0.3%
B1: full-length HiBiTHA-SARAF (WT) (natural protein)
chain: WNDPDRMLLRDVKALTLHYDRYTTSRRLDPIPQLKCVGGTAGCDSYTPKVIQCQNKGWDGYDVQWECKTDLDIAYKFGKTVVSCEGYESSEDQYVLRGSCGLEYNLDYTELGLQKLKESGKQHGFASFSDYYYKWSSADSCNMSGLITIVVLLGIAFVVYKLFLSDGQYSPPPYSEYPPFSHRYQRFTNSAGPPPPGFKSEFTGPQNTGHGATSGFGSAFTGQQGYENSGPGFWTGLGTGGILGYLFGSNRAATPFSDSWYYPSYPPSYPGTWNRAYSPLHGGSGSYSVCSNSDTKTRTASGYGGTRRR
